This is an account of results in patent publication US20070104676A1, “Cosmetic and/or dermatological preparations containing an extract from the seeds of plants of the genus adenanthera” (COGNIS FRANCE S.A., priority 2003, published 2007).

In assay [1] the target is pancreas elastase (Sus scrofa, UniProt P00772). Description: Inhibition of elastase activity. The class given is biochemical. The procedure:
In order to test the effectiveness of the plant extract in inhibiting the release of elastase, pancreas elastase (a serine protease) was investigated and, as substrate, elastin was marked with a chromogenic synthetic substrate. The system was incubated with the active principles for 30 minutes at room temperature and then, after centrifuging, the optical density of the dye was determined at 410 nm. The extracts were used in a quantity of 0.3% by weight. The results are set out in Table 1 where they are expressed relative to a control as standard (=0%); a1-antitrypsin was used as the standard.

The target in assay [2] is T1, Human plasmin (Homo sapiens, UniProt P00747).
T1 construct: purchased Sigma
T1 sequence (P00747 581-810 limits assumed): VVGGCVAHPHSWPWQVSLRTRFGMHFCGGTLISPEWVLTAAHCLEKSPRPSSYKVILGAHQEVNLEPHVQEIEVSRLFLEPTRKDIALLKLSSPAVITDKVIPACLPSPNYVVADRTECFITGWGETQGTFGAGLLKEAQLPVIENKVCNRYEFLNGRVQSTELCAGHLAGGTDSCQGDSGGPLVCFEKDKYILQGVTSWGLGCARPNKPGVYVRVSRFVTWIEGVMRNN
T1 sequence (P00747 97-580 partner limits assumed): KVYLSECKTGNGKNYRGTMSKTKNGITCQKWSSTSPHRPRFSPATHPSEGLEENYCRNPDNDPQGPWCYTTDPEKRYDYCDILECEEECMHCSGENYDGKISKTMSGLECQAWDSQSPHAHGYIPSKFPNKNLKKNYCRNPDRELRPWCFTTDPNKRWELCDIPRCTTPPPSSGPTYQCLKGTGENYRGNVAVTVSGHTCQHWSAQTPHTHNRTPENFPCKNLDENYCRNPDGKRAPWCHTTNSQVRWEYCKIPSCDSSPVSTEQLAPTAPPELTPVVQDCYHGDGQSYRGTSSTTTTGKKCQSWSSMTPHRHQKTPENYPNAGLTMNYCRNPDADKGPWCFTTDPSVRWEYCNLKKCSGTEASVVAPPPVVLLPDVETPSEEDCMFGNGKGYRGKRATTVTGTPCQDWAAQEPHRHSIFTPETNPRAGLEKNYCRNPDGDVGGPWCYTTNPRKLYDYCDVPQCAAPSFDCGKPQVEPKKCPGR
Description: Inhibition of plasmin activity (quenched fluorescent casein hydrolysis). The class given is biochemical. The conditions noted are these: reference substance. The procedure:
Method: Human plasmin obtained from Sigma was mixed with the extract in a quantity of 0.3% by weight and incubated for a few minutes at 20° C. Natural casein marked with a quenched fluorescence probe (Interchim natural) was then added. The protease-catalyzed hydrolysis degraded the quenching and produced a fluorescence signal. The proportion of hydrolyzed substrate was determined by measuring the increased green fluorescence over a period of 30 minutes. […] The inhibition of enzyme activity was evaluated by comparison with a control and a reference substance SBT1 (Sigma).

pancreas elastase, sequence (P00772 27-266): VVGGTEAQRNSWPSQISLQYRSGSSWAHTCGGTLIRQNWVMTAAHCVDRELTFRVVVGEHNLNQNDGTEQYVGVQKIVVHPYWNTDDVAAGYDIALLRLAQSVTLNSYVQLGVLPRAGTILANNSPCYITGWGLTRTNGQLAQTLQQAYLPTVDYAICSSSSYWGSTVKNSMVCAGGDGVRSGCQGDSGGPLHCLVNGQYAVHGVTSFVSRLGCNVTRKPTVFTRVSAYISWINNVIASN

For the molecule “α1-anti-trypsin: Standard used in the elastase inhibition test”, in assay [1], the “IC50 (elastase inhibition, standard)” value was “IC50 = 0.13 mg/ml”.

B1: SBTI: Reference substance (Sigma) in the plasmin inhibition test (protein, UniProt P01070 25-205, looked up)
Trypsin inhibitor A: DFVLDNEGNPLENGGTYYILSDITAFGGIRAAPTGNERCPLTVVQSRNELDKGIGTIISSPYRIRFIAEGHPLSLKFDSFAVIMLCVGIPTEWSVVEDLPEGPAVKIGENKDAMDGWFRLERVSDDEFNNYKLVFCPQQAEDDKCGDIGISIDHDDGTRRLVVSKNKPLVVQFQKLDKESL
With B1, in assay [2], the “IC50 (plasmin inhibition, standard)” value is listed as 0.006%.
